Reference: the supplement of paper PMC7877785
± gives the uncertainty stated by the source.

Assay: self-splicing fitness, log relative to wild type (ln ratio); higher = more splicing; Tetrahymena group I intron in knt gene, E. coli kanamycin selection, DiMSum; sequences stand for … in CUCUCU…GGAGGGAAAAGUUAUCAGGCAUGCACCUGGUAGCUAGUCUUUAAACCAAUAGAUUGCAUCGGUUUAAAAGGCAAGACCGUCAAAUUGCGGGAAAGGGGUCAACAGCCGUUCAGUACCAAGUCUCAGGGGAAACUUUGAGAUGGCCUUGCAAAGGGUAUGGUAAUAAGCUGACGGACAUGGUCCUAACCACGCAGCCAAGUCCUAAGUCAACAGAUCUUCUGUUGAUAUGGAUGCAGUUCACAGACUAAAUGUCGGUCGGGGAAGAUGUAUUCUUCUCAUAAGAUAUAGUCGGACCUCUCCUUAAUGGGAGCUAGCGGAUGAAGUGAUGCAACACUGGAGCCGCUGGGAACUAAUUUGUAUGCGAAAGUAUAUUGAUUAGUUUUGGAGUACUCGUGGUCG
Outline: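 Six replicate transformations of E. coli BL21(DE3) with a pET-22b(+) library were grown overnight at 37°C or 30°C. The library randomised all eight P1ex-region intron nucleotides, the intron lying in the knt kanamycin-resistance gene, and plates were LB agar with or without 25 μg/mL kanamycin plus 100 μg/mL carbenicillin, 50 μM IPTG and 0.2% rhamnose. Pooled colonies were amplicon-sequenced on an Illumina HiSeq 2500, and fitness is the DiMSum error-weighted combination of wild-type-normalised replicate fold changes, kanamycin versus none.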

Sequence	self-splicing fitness (ln) (30 °C)	self-splicing fitness (ln) (37 °C)
CCGCAGCAAUAUUACGAGGU	-3.73 ± 0.2	-1.84 ± 0.19
CGAUAGCAAUAUUACGCAGC	-4.01 ± 0.36	-1.34 ± 0.24
AAUUAGCAAUAUUACGUUUA	-1.6 ± 0.12	-0.975 ± 0.12
UAUUAGCAAUAUUACGAGAA	–	-2.92 ± 0.47
CAGUAGCAAUAUUACGAGCG	-0.475 ± 0.087	0.263 ± 0.12
GCUGAGCAAUAUUACGGCUU	-2.37 ± 0.24	–
CUUCAGCAAUAUUACGCAUC	-2.85 ± 0.22	-2.68 ± 0.22
GGGCAGCAAUAUUACGAGUU	-2.81 ± 0.2	-1.27 ± 0.22
CGUGAGCAAUAUUACGAGCU	-2.79 ± 0.17	-2.99 ± 0.25
GAGAAGCAAUAUUACGAGUA	-2.04 ± 0.2	-1.73 ± 0.12
CCUUAGCAAUAUUACGACUA	–	-2.23 ± 0.5
AUCUAGCAAUAUUACGCCUA	-1.09 ± 0.16	-0.389 ± 0.16
CGAUAGCAAUAUUACGAUCG	-2.55 ± 0.24	-2.39 ± 0.38
UGGGAGCAAUAUUACGGGCC	-2.63 ± 0.32	-1.92 ± 0.35
ACGCAGCAAUAUUACGCUUG	-3.56 ± 0.21	-2.55 ± 0.2
AAUCAGCAAUAUUACGAUCG	-0.0405 ± 0.063	0.448 ± 0.084
AGAAAGCAAUAUUACGAUCG	-0.0642 ± 0.072	-0.026 ± 0.091
ACAAAGCAAUAUUACGGUUA	-1.58 ± 0.092	-0.719 ± 0.078
AUACAGCAAUAUUACGUGUU	-3.98 ± 0.21	-2.64 ± 0.22
AACGAGCAAUAUUACGUCGC	-2.69 ± 0.36	1.3 ± 0.3
UAGAAGCAAUAUUACGUGGU	-3.52 ± 0.2	-2.54 ± 0.18
UUGAAGCAAUAUUACGAGUC	-3.73 ± 0.32	-2.8 ± 0.38
GUCGAGCAAUAUUACGAAUU	-3.05 ± 0.32	-0.878 ± 0.19
AGCAAGCAAUAUUACGCCGA	-0.81 ± 0.15	-0.63 ± 0.17
AUUCAGCAAUAUUACGUGCA	-0.628 ± 0.08	-0.47 ± 0.083
UGCUAGCAAUAUUACGGGAA	-1.83 ± 0.15	-0.95 ± 0.16

Sequence	self-splicing fitness (ln) (30 °C)	self-splicing fitness (ln) (37 °C)
AUCCAGCAAUAUUACGCAAG	-2.75 ± 0.18	0.207 ± 0.14
ACUAAGCAAUAUUACGGCGU	-0.894 ± 0.078	-0.0271 ± 0.1
CGUUAGCAAUAUUACGCCAA	-1.97 ± 0.45	–
CACUAGCAAUAUUACGUAGC	-3.47 ± 0.19	-2.94 ± 0.23
UGCGAGCAAUAUUACGCUUU	-2.38 ± 0.15	-3.02 ± 0.28
GGUUAGCAAUAUUACGGAGG	-3.02 ± 0.2	-2.78 ± 0.18
GCUGAGCAAUAUUACGCUGA	-2.99 ± 0.2	-1.15 ± 0.17
AAUGAGCAAUAUUACGUACC	–	-2.85 ± 0.27
ACCGAGCAAUAUUACGAAGA	-3.11 ± 0.28	-2.54 ± 0.29
CAUAAGCAAUAUUACGUUGC	-4.07 ± 0.3	-3.3 ± 0.3
GAGCAGCAAUAUUACGAGAU	-3.68 ± 0.18	-2.64 ± 0.17
UAACAGCAAUAUUACGACUA	-0.142 ± 0.049	-0.212 ± 0.057
UAAAAGCAAUAUUACGCAGG	-1.55 ± 0.12	-1.2 ± 0.11
GAGCAGCAAUAUUACGCGCU	-3.19 ± 0.38	-1.9 ± 0.36
GGAAAGCAAUAUUACGGAUA	-2.59 ± 0.21	-1.55 ± 0.19
AUAUAGCAAUAUUACGACUC	-0.877 ± 0.15	-0.341 ± 0.2
AAUAAGCAAUAUUACGUUUA	-2.05 ± 0.084	-1.3 ± 0.096
UCGUAGCAAUAUUACGAUCG	-2.77 ± 0.23	-0.597 ± 0.18
AAGUAGCAAUAUUACGAACG	-1.86 ± 0.11	-1.17 ± 0.13
GAUGAGCAAUAUUACGAACU	-0.431 ± 0.31	-0.239 ± 0.31
AUCAAGCAAUAUUACGGCAG	-1.58 ± 0.085	-1.55 ± 0.12
GCAUAGCAAUAUUACGUUAA	-2.44 ± 0.19	-1.81 ± 0.15
GUAGAGCAAUAUUACGGAGU	-2.27 ± 0.23	-1.61 ± 0.18
GGUGAGCAAUAUUACGUUAU	-3.23 ± 0.2	-1.84 ± 0.19
AAUGAGCAAUAUUACGCUGG	-3.22 ± 0.2	-2.08 ± 0.25
GACAAGCAAUAUUACGAGUG	-1.55 ± 0.056	-0.456 ± 0.073

Sequence	self-splicing fitness (ln) (30 °C)	self-splicing fitness (ln) (37 °C)
CUUGAGCAAUAUUACGGUGG	-2.55 ± 0.13	-1.52 ± 0.12
GAGUAGCAAUAUUACGAAAU	-2.68 ± 0.21	-1.37 ± 0.23
CACCAGCAAUAUUACGGUGA	-2.61 ± 0.095	-3.26 ± 0.15
AAACAGCAAUAUUACGACGG	-3.02 ± 0.092	-1.13 ± 0.087
CAAAAGCAAUAUUACGCGGA	-3.43 ± 0.25	-2.08 ± 0.17
AGGUAGCAAUAUUACGCAAG	-2.25 ± 0.018	-1.26 ± 0.034
GGGCAGCAAUAUUACGAGGU	-4.65 ± 0.38	-2.77 ± 0.24
CCGUAGCAAUAUUACGCAUG	-0.123 ± 0.14	-1.09 ± 0.13
AAACAGCAAUAUUACGCCAG	-4.93 ± 0.39	-2.11 ± 0.22
GAAGAGCAAUAUUACGGCAA	–	-2.36 ± 0.49
AAAGAGCAAUAUUACGCACG	-2.69 ± 0.23	-2.22 ± 0.26
UCAGAGCAAUAUUACGUCUU	-3.53 ± 0.32	-2.53 ± 0.36
AUUUAGCAAUAUUACGAAGA	-2.11 ± 0.4	-1.36 ± 0.34
CCAUAGCAAUAUUACGUAUU	-3.88 ± 0.19	-2.64 ± 0.21
GGCGAGCAAUAUUACGGUAC	-2.08 ± 0.17	-1.98 ± 0.19
GAGUAGCAAUAUUACGAUAA	-2.41 ± 0.25	-1.18 ± 0.2
UCGUAGCAAUAUUACGCUGC	–	-2.48 ± 0.36
GAGAAGCAAUAUUACGUGCC	-0.556 ± 0.11	-0.064 ± 0.11
CGGGAGCAAUAUUACGCAAG	-3.14 ± 0.23	-2.13 ± 0.29
UCGGAGCAAUAUUACGCCUU	-2.96 ± 0.29	-2.92 ± 0.43
UUUCAGCAAUAUUACGCGCA	-0.226 ± 0.11	0.569 ± 0.12
CAUUAGCAAUAUUACGUUUA	-1.42 ± 0.15	-1.48 ± 0.15
ACCCAGCAAUAUUACGACUC	-0.5 ± 0.061	-0.482 ± 0.079
UCCUAGCAAUAUUACGUUAC	-3.48 ± 0.25	-2.09 ± 0.25
ACCAAGCAAUAUUACGCAGU	-3.71 ± 0.22	-2.77 ± 0.28
